# ± gives the standard deviation of the averaged measurements.
# Experiment: total protein half-life in vivo (active degradation + dilution); higher = more stable protein
# [1] = E. coli NCM3722 delta-clpP delta-lon delta-hslV, growth: N-lim chemostat, doubling time 6 h
# [2] = E. coli NCM3722 delta-clpP, growth: N-lim chemostat, doubling time 6 h
# [3] = E. coli NCM3722 delta-hslV, growth: N-lim chemostat, doubling time 6 h
# [4] = E. coli NCM3722 delta-lon, growth: N-lim chemostat, doubling time 6 h
# [5] = E. coli NCM3722 delta-smpB, growth: N-lim chemostat, doubling time 6 h
# [6] = wild type E. coli NCM3722, growth: C-lim chemostat, doubling time 3 h
# [7] = wild type E. coli NCM3722, growth: C-lim chemostat, doubling time 6 h
# [8] = wild type E. coli NCM3722, growth: C-lim chemostat, doubling time 12 h
# [9] = wild type E. coli NCM3722, growth: N-lim chemostat, doubling time 6 h
# [10] = wild type E. coli NCM3722, growth: P-lim chemostat, doubling time 6 h
# [11] = wild type E. coli NCM3722, growth: P-lim chemostat, doubling time 12 h
# [12] = wild type E. coli NCM3722, growth: N-lim chemostat, doubling time 12 h
Sequence,total protein half-life in vivo [1] [h],total protein half-life in vivo [2] [h],total protein half-life in vivo [3] [h],total protein half-life in vivo [4] [h],total protein half-life in vivo [5] [h],total protein half-life in vivo [6] [h],total protein half-life in vivo [7] [h],total protein half-life in vivo [8] [h],total protein half-life in vivo [9] [h],total protein half-life in vivo [10] [h],total protein half-life in vivo [11] [h],total protein half-life in vivo [12] [h]
MMKTVKHLLCCAIAASALISTGVHAASWKDALSSAASELGNQNSTTQEGGWSLASLTNLLSSGNQALSADNMNNAAGILQYCAKQKLASVTDAENIKNQVLEKLGLNSEEQKEDTNYLDGIQGLLKTKDGQQLNLDNIGTTPLAEKVKTKACDLVLKQGLNFIS,2.77 ± 0.018,2.37,2.68,3.02 ± 0.12,2.56 ± 0.057,2.22 ± 0.24,3.873 ± 0.035,3.5,2.1,3.43,3.72 ± 0.56,
MMMGEVQSLPSAGLHPALQDALTLALAARPQEKAPGRYELQGDNIFMNVMTFNTQSPVEKKAELHEQYIDIQLLLNGEERILFGMAGTARQCEEFHHEDDYQLCSTIDNEQAIILKPGMFAVFMPGEPHKPGCVVGEPGEIKKVVVKVKADLMA,5.11 ± 0.56,5.65,4.7878 ± 0.0042,5.28,4.8 ± 0.44,2.61 ± 0.37,5.51 ± 0.72,9.27 ± 2.2,,4.2 ± 0.51,10.3 ± 0.17,7.67
MMNDGKQQSTFLFHDYETFGTHPALDRPAQFAAIRTDSEFNVIGEPEVFYCKPADDYLPQPGAVLITGITPQEARAKGENEAAFAARIHSLFTVPKTCILGYNNVRFDDEVTRNIFYRNFYDPYAWSWQHDNSRWDLLDVMRACYALRPEGINWPENDDGLPSFRLEHLTKANGIEHSNAHDAMADVYATIAMAKLVKTRQPRLFDYLFTHRNKHKLMALIDVPQMKPLVHVSGMFGAWRGNTSWVAPLAWHPENRNAVIMVDLAGDISPLLELDSDTLRERLYTAKTDLGDNAAVPVKLVHINKCPVLAQANTLRPEDADRLGINRQHCLDNLKILRENPQVREKVVAIFAEAEPFTPSDNVDAQLYNGFFSDADRAAMKIVLETEPRNLPALDITFVDKRIEKLLFNYRARNFPGTLDYAEQQRWLEHRRQVFTPEFLQGYADELQMLVQQYADDKEKVALLKALWQYAEEIV,5.14 ± 0.17,4.99 ± 0.24,4.41 ± 0.22,,3.9722 ± 0.0028,3.12 ± 0.044,5.87 ± 0.28,9.97 ± 1.4,4.297 ± 0.027,6.73 ± 0.97,12.3 ± 0.74,6.577 ± 0.033
MMNNKVSFTNSNNPTISLSAVIYFPPKFDETRQYQAIVLSHPGGGVKEQTAGTYAKKLAEKGFVTIAYDASYQGESGGEPRQLENPYIRTEDISAVIDYLTTLSYVDNTRIGAMGICAGAGYTANAAIQDRRIKAIGTVSAVNIGSIFRNGWENNVKSIDALPYVEAGSNARTSDISSGEYAIMPLAPMKESDAPNEELRQAWEYYHTPRAQYPTAPGYATLRSLNQIITYDAYHMAEVYLTQPTQIVAGSQAGSKWMSDDLYDRASSQDKRYHIVEGANHMDLYDGKAYVAEAISVLAPFFEETL,6.23 ± 1.9,4.63 ± 0.35,4.23 ± 0.18,,4.02 ± 0.44,,6.58 ± 0.55,11.2 ± 1.6,4.088 ± 0.028,6.21 ± 0.18,13.7 ± 2.8,6.51 ± 0.44
MMNPLIIKLGGVLLDSEEALERLFSALVNYRESHQRPLVIVHGGGCVVDELMKGLNLPVKKKNGLRVTPADQIDIITGALAGTANKTLLAWAKKHQIAAVGLFLGDGDSVKVTQLDEELGHVGLAQPGSPKLINSLLENGYLPVVSSIGVTDEGQLMNVNADQAATALAATLGADLILLSDVSGILDGKGQRIAEMTAAKAEQLIEQGIITDGMIVKVNAALDAARTLGRPVDIASWRHAEQLPALFNGMPMGTRILA [P0A6C8],4.97 ± 0.82,3.77 ± 0.19,3.36 ± 0.25,4.45 ± 0.17,3.02 ± 0.15,2.84 ± 0.045,5.19 ± 0.41,10.3 ± 3.4,3.404 ± 0.033,4.58 ± 0.39,7.92 ± 0.16,4.813 ± 0.046
MMNSTNKLSVIIPLYNAGDDFRTCMESLITQTWTALEIIIINDGSTDNSVEIAKYYAENYPHVRLLHQANAGASVARNRGIEVATGKYVAFVDADDEVYPTMYETLMTMALEDDLDVAQCNADWCFRETGETWQSIPTDRLRSTGVLTGPDWLRMGLSSRRWTHVVWMGVYRRDVIVKNNIKFIAGLHHQDIVWTTEFMFNALRARYTEQSLYKYYLHNTSVSRLHRQGNKNLNYQRHYIKITRLLEKLNRNYADKIMIYPEFHQQITYEALRVCHAVRKEPDILTRQRMIAEIFTSGMYKRLITNVRSVKVGYQALLWSFRLWQWRDKTRSHHRITRSAFNLR,5.55 ± 0.4,0.858,,,0.809 ± 0.17,,,,,0.32 ± 0.2,0.789 ± 0.74,
MMPQSLPDTTTPKRRFRWPTGMPQLVALLLVLLVDSLVAPHFWQVVLQDGRLFGSPIDILNRAAPVALLAIGMTLVIATGGIDLSVGAVMAIAGATTAAMTVAGFSLPIVLLSALGTGILAGLWNGILVAILKIQPFVATLILMVAGRGVAQLITAGQIVTFNSPDLSWFGSGSLLFLPTPVIIAVLTLILFWLLTRKTALGMFIEAVGINIRAAKNAGVNTRIIVMLTYVLSGLCAAIAGIIVAADIRGADANNAGLWLELDAILAVVIGGGSLMGGRFNLLLSVVGALIIQGMNTGILLSGFPPEMNQVVKAVVVLCVLIVQSQRFISLIKGVRSRDKT,,,,,,,,8.92,,,,
MMQPSIKPADEHSAGDIIARIGSLTRMLRDSLRELGLDQAIAEAAEAIPDARDRLYYVVQMTAQAAERALNSVEASQPHQDQMEKSAKALTQRWDDWFADPIDLADARELVTDTRQFLADVPAHTSFTNAQLLEIMMAQDFQDLTGQVIKRMMDVIQEIERQLLMVLLENIPEQESRPKRENQSLLNGPQVDTSKAGVVASQDQVDDLLDSLGF [P0A9H9],,,,,,,,2.6,,,,
MMQTVLAKIVADKAIWVEARKQQQPLASFQNEVQPSTRHFYDALQGARTAFILECKKASPSKGVIRDDFDPARIAAIYKHYASAISVLTDEKYFQGSFNFLPIVSQIAPQPILCKDFIIDPYQIYLARYYQADACLLMLSVLDDDQYRQLAAVAHSLEMGVLTEVSNEEEQERAIALGAKVVGINNRDLRDLSIDLNRTRELAPKLGHNVTVISESGINTYAQVRELSHFANGFLIGSALMAHDDLHAAVRRVLLGENKVCGLTRGQDAKAAYDAGAIYGGLIFVATSPRCVNVEQAQEVMAAAPLQYVGVFRNHDIADVVDKAKVLSLAAVQLHGNEEQLYIDTLREALPAHVAIWKALSVGETLPAREFQHVDKYVLDNGQGGSGQRFDWSLLNGQSLGNVLLAGGLGADNCVEAAQTGCAGLDFNSAVESQPGIKDARLLASVFQTLRAY,4.8 ± 0.34,4.62 ± 1,4.15 ± 0.2,5.01 ± 0.64,4.1 ± 0.18,2.91 ± 0.1,4.97 ± 0.14,7.713 ± 0.011,4 ± 0.086,4.9 ± 0.078,9.51 ± 0.49,6.392 ± 0.053

# Source: the supplement of paper PMC11246515
